{"source": "patent US20220356247A1", "about": "(NANJING IMMUNOPHAGE BIOTECH, published 2022)", "target": "T1, human ROR1 (human, UniProt Q01973 30-403, limits assumed)", "T1 construct": "also called receptor tyrosine kinase-like orphan receptor 1", "T1 sequence (Q01973 30-403 limits assumed)": "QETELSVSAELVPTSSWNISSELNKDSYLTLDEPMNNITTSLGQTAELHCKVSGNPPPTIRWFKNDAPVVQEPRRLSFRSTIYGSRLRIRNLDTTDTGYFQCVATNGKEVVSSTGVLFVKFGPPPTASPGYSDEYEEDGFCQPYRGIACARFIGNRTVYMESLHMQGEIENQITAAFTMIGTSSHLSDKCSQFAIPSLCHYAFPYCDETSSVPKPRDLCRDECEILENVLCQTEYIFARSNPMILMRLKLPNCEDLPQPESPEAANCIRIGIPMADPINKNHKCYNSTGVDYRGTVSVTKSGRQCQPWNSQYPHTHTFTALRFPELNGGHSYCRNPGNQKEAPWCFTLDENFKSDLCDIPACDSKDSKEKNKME", "experiment": "affinity for human ROR1, method not stated", "data": [{"binder": "anti-ROR1 antibody clone C3 (antibody, V domains shown, Fully human clone from a naive phage library) VH: QVQLQESGPGLVKPSETLSLTCTVSGGSISSYYWSWIRQLPGKGLEWIGYMHYSGSTSYNPSLKGRLTISVDTSTNQFSLKLGSVTAADTAVYYCARYYYHDSSGYYSYFDYWGQGTLVTVSS VL: EIVLTQSPGTLSLSPGERATLSCRASQSVSSYLAWYQQKAGQAPRLLIYDASNRASGIPARFSGSGSGTDFTLTISSLEPEDFAVYYCQQRSNWPPTFGGGTKVEIK", "values": [{"measurement": "Kd", "result": 3.25, "unit": "nM"}]}, {"binder": "anti-ROR1 antibody clone G3 (antibody, V domains shown, Fully human clone from a naive phage library) VH: QVQLQQWGAGLLKPSETLSLTCAVYGGSFSGYYWSWIRQPPGKGLEWIGEINHSGSTSYNPSLKSRVTISVDTSKNQFSLKLSSVTAADTAVYYCARGHSSGWYRRYFDLWGRGTLVTVSS VL: EIVLTQSPATLSLSPGERATLSCRASQSVSSYLAWYQQKPGQAPRLLIYDASNRATGIPAKFSGSGSGTDFTLTISSLEPEDFAVYYCQQRSNWPPTFGGGTKVEIK", "values": [{"measurement": "Kd", "result": 4.48, "unit": "nM"}]}, {"binder": "anti-ROR1 antibody clone G6 (antibody, V domains shown, Fully human clone from a naive phage library) VH: EVQLVESGGGVVQPGGSLRLSCAASGFTFDDYAMHWVRQAPGKGLEWVSLISGDGGSTYYADSVKGRFTISRDNAKNSLYLQMNSLRAEDTAVYYCARDNWNDVYYYYGMDVWGQGTTVTVSS VL: DIQLTQSPSSLSASIGDTVTISCQASRDISDYLNWYQHKPGKAPKLLIYDASNLATGVPSRFSGSGSGTDFTLTIKSLQPEDVATYFCQQDDLLPLTFGGGTKVDIK", "values": [{"measurement": "Kd", "result": 43.7, "unit": "nM"}]}]}
